This is an account of results in US5948653.

This data set addresses RecA (Escherichia coli?) (UniProt P0A7G6). Briefly: cell_activity.

Sequence of RecA (Escherichia coli?) (P0A7G6 2-353): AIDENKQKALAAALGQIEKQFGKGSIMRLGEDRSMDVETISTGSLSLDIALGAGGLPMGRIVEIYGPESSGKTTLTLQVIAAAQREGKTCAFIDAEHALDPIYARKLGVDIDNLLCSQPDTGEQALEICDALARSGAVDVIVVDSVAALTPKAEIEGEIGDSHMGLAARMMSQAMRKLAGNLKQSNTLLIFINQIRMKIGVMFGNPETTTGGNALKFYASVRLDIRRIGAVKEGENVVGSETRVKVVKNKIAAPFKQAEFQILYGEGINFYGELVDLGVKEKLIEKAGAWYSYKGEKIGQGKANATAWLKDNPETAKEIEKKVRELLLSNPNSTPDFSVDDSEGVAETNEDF

Take “CFTR 491-nt fragment (exon 10 and flanking introns) ; CFTR deltaF508 genomic locus”: the activity (homologous replacement after microinjection of RecA-coated DNA) is over 0.00025 frequency. Substance lacZ 276-mer probe ; pMC1lacXpA registered an activity (blue NIH3T3 cells (6/168), 0% without RecA, D-loop also seen on agarose gel) of 3.6%.
